# Data published in the supplement of paper PMC9233669.
# This sample holds only a part of the variants without activity.
# Legend:
# [1] = system: biotinyl-Phe-oxazolone; test: self-aminoacylation, catalytic enhancement (BFO) (fold over background); higher = more active; k-Seq, kA / k0A0; sequences stand for … in GGGAAUGGAUCCACAUCUACGAAUUC…UUCACUGCAGACUUGACGAAGCUG
# Method in brief: (§1)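 Working in 50 μL HEPES/NaCl/KCl/MgCl2/CaCl2 buffer with 5% acetonitrile at pH 6.9–7.0, mutagenized RNA pools (0.43 μM; 21-nt variable region) were reacted with 2–1250 μM of each biotinyl-aminoacyl-oxazolone for 90 minutes at room temperature. Streptavidin capture followed, with quantification by triplicate qPCR and Illumina sequencing. Catalytic enhancement is reported as median kA over the uncatalyzed rate, the low-activity peak of a bimodal Gaussian fit to the data.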
# [2] = system: biotinyl-Ile-oxazolone; test: self-aminoacylation, catalytic enhancement (BIO) (fold over background); higher = more active; k-Seq, kA / k0A0; sequences stand for … in GGGAAUGGAUCCACAUCUACGAAUUC…UUCACUGCAGACUUGACGAAGCUG
# Method in brief: as §1
# [3] = system: biotinyl-Met-oxazolone; test: self-aminoacylation, catalytic enhancement (BMO) (fold over background); higher = more active; k-Seq, kA / k0A0; sequences stand for … in GGGAAUGGAUCCACAUCUACGAAUUC…UUCACUGCAGACUUGACGAAGCUG
# Method in brief: as §1
# [4] = system: biotinyl-Val-oxazolone; test: self-aminoacylation, catalytic enhancement (BVO) (fold over background); higher = more active; k-Seq, kA / k0A0; sequences stand for … in GGGAAUGGAUCCACAUCUACGAAUUC…UUCACUGCAGACUUGACGAAGCUG
# Method in brief: as §1
# [5] = system: biotinyl-Leu-oxazolone; test: self-aminoacylation, catalytic enhancement (BLO) (fold over background); higher = more active; k-Seq, kA / k0A0; sequences stand for … in GGGAAUGGAUCCACAUCUACGAAUUC…UUCACUGCAGACUUGACGAAGCUG
# Method in brief: as §1
# [6] = system: biotinyl-Trp-oxazolone; test: self-aminoacylation, catalytic enhancement (BWO) (fold over background); higher = more active; k-Seq, kA / k0A0; sequences stand for … in GGGAAUGGAUCCACAUCUACGAAUUC…UUCACUGCAGACUUGACGAAGCUG
# Method in brief: as §1
Sequence,self-aminoacylation [1],self-aminoacylation [2],self-aminoacylation [3],self-aminoacylation [4],self-aminoacylation [5],self-aminoacylation [6]
AAGCUUGCUAAUUGUCGCAAG [Fam3.1 aminoacylation ribozyme variant],2.23,1.96,2.38,1.57,2.25,1.99
AAGCUUGCUAGUAGUCGCAAG [Fam3.1 aminoacylation ribozyme variant],2.3,1.48,1.89,1.33,1.43,0.908
AAGCUUGCUCAUAGUCGCAAG [Fam3.1 aminoacylation ribozyme variant],2.34,1.99,2.05,1.99,1.52,1.59
AAGGGUGCUAAUAGUCGCAAG [Fam3.1 aminoacylation ribozyme variant],6.2,1.72,1.74,1.36,1.5,2.93
AAGGUUGCGAAUAGUCGCAAG [Fam3.1 aminoacylation ribozyme variant],6.53,1.64,1.37,1.03,1.2,0.982
AAGGUUGCUAAGAGUCGCAAG [Fam3.1 aminoacylation ribozyme variant],1.9,1.17,0.884,1.03,1.1,1.57
AAGGUUGCUAAUAGCCGCAAG [Fam3.1 aminoacylation ribozyme variant],1.49,1.57,1.06,1.28,1.31,1.41
AAGGUUGCUAAUAGUCGCAAG [Fam3.1 aminoacylation ribozyme variant],6.56,1.32,1.29,1.23,1.25,2.64
AAGGUUGCUAAUAGUCGCAUG [Fam3.1 aminoacylation ribozyme variant],2.16,1.66,1.34,1.34,1.45,2
AAGGUUGCUAUUAGUCGCAAG [Fam3.1 aminoacylation ribozyme variant],2.24,1.66,1.3,1.18,1.56,1.53
AAGGUUGUUAAUAGUCGCAAG [Fam3.1 aminoacylation ribozyme variant],2.51,1.86,1.72,1.39,1.69,1.53
AAGUAUGCAAAUAGUCGCAAG [Fam3.1 aminoacylation ribozyme variant],1.55,1.17,1.06,1.05,1.02,1.76
AAGUAUGCUAACAGUCGCAAG [Fam3.1 aminoacylation ribozyme variant],13.3,1.82,1.42,1.54,1.45,4.66
AAGUCUGCCAAUAGUCGCAAG [Fam3.1 aminoacylation ribozyme variant],1.53,1.18,1.84,1.06,0.879,1.28
AAGUCUGCUAAUAGUCGCAUG [Fam3.1 aminoacylation ribozyme variant],2.06,0.998,1.72,1.27,1.89,1.91
AAGUCUGCUAAUGGUCGCAAG [Fam3.1 aminoacylation ribozyme variant],5.79,0.882,1.3,0.865,0.959,0.919
AAGUGCGCUAAUAGUCGCAAG [Fam3.1 aminoacylation ribozyme variant],3.73,1.84,1.19,1.8,1.38,4.08
AAGUGUGCUAAUAGCCGCAAG [Fam3.1 aminoacylation ribozyme variant],3.94,1.81,1.49,1.48,1.2,2.61
AAGUGUGCUAAUAGUCGCAUG [Fam3.1 aminoacylation ribozyme variant],1.09,1.38,1.44,1.3,1.86,1.98
AAGUGUGCUAAUAGUCGCUAG [Fam3.1 aminoacylation ribozyme variant],0.823,1.23,0.976,0.925,0.893,0.788
AAGUGUGGUAAUAGUCGCAAG [Fam3.1 aminoacylation ribozyme variant],1.5,1.43,1.15,1.16,1.48,1.15
AAGUUAGCUAAUAGUCCCAAG [Fam3.1 aminoacylation ribozyme variant],2.79,1.15,1.18,0.967,1,1.1
AAGUUAGCUAAUAGUGGCAAG [Fam3.1 aminoacylation ribozyme variant],0.615,0.718,0.809,0.648,0.554,0.543
AAGUUAGCUAAUAGUUGCAAG [Fam3.1 aminoacylation ribozyme variant],1.8,1.47,1.45,1.33,1.59,2.07
AAGUUAGCUAAUAUUCGCAAG [Fam3.1 aminoacylation ribozyme variant],2.26,1.78,1.43,1.39,1.33,1.59
AAGUUCGCUAAUAGUCGCCAG [Fam3.1 aminoacylation ribozyme variant],11.6,2.33,1.84,1.81,1.79,2.27

Sequence,self-aminoacylation [1],self-aminoacylation [2],self-aminoacylation [3],self-aminoacylation [4],self-aminoacylation [5],self-aminoacylation [6]
AAGUUCGCUAAUAGUCGCGAG [Fam3.1 aminoacylation ribozyme variant],15.2,3.31,2.09,2.51,2.18,4
AAGUUCGCUAAUAGUUGCAAG [Fam3.1 aminoacylation ribozyme variant],1.71,1.52,1.47,1.22,1.33,1.12
AAGUUCGCUAUUAGUCGCAAG [Fam3.1 aminoacylation ribozyme variant],2.21,2,1.82,1.5,2.14,1.44
AAGUUGGCUAAUAGGCGCAAG [Fam3.1 aminoacylation ribozyme variant],1.49,1.71,1.14,1.23,1.41,1.19
AAGUUGGCUAAUAGUCGCAUG [Fam3.1 aminoacylation ribozyme variant],1.69,1.77,1.88,1.51,2.19,2
AAGUUGGCUAAUAGUCGUAAG [Fam3.1 aminoacylation ribozyme variant],10.7,1.49,1.33,1.37,1.14,4.1
AAGUUGGCUACUAGUCGCAAG [Fam3.1 aminoacylation ribozyme variant],1.58,1.65,1.2,1.76,1.86,1.42
AAGUUGGCUAGUAGUCGCAAG [Fam3.1 aminoacylation ribozyme variant],2.98,1.65,1.21,1.65,1.65,1.51
AAGUUGGCUAUUAGUCGCAAG [Fam3.1 aminoacylation ribozyme variant],1.55,2,1.36,1.49,1.62,1.85
AAGUUUACUAAUAGUAGCAAG [Fam3.1 aminoacylation ribozyme variant],1.97,1.54,1.28,1.22,1.17,0.98
AAGUUUACUAAUAGUCGCAGG [Fam3.1 aminoacylation ribozyme variant],2.36,1.55,1.25,1.34,1.6,1.61
AAGUUUACUAAUAGUCGCAUG [Fam3.1 aminoacylation ribozyme variant],2.25,1.49,1.25,1.13,1.34,1.68
AAGUUUACUAAUAGUCGCCAG [Fam3.1 aminoacylation ribozyme variant],1.61,1.42,1.23,1.21,1.24,1.31
AAGUUUACUAAUAGUCUCAAG [Fam3.1 aminoacylation ribozyme variant],2.39,1.15,0.844,1.29,1.11,1.23
AAGUUUACUAAUCGUCGCAAG [Fam3.1 aminoacylation ribozyme variant],2.66,1.64,1.13,1.46,1.55,1.35
AAGUUUACUAAUGGUCGCAAG [Fam3.1 aminoacylation ribozyme variant],1.64,1.59,1.28,1.1,1.47,2.06
AAGUUUCCUAAUAGUCGCAAU [Fam3.1 aminoacylation ribozyme variant],4.15,2.34,1.79,1.88,2.04,2.47
AAGUUUCCUAAUAGUCGCAUG [Fam3.1 aminoacylation ribozyme variant],2.38,2.28,1.89,1.9,1.94,2.11
AAGUUUCCUAAUAGUGGCAAG [Fam3.1 aminoacylation ribozyme variant],0.605,0.838,0.752,0.902,0.642,0.634
AAGUUUCCUCAUAGUCGCAAG [Fam3.1 aminoacylation ribozyme variant],3.38,2.1,1.39,2.08,2,1.84
AAGUUUCCUGAUAGUCGCAAG [Fam3.1 aminoacylation ribozyme variant],3.33,1.67,1.69,1.54,1.69,1.49
AAGUUUGAUAAUAGGCGCAAG [Fam3.1 aminoacylation ribozyme variant],0.836,0.704,0.523,0.551,0.59,0.74
AAGUUUGAUAAUAGUCGAAAG [Fam3.1 aminoacylation ribozyme variant],1.03,0.705,0.568,0.592,0.543,0.785
AAGUUUGCAAACAGUCGCAAG [Fam3.1 aminoacylation ribozyme variant],1.47,0.775,0.798,0.735,0.93,0.595
AAGUUUGCAAAUAGUCGCAAC [Fam3.1 aminoacylation ribozyme variant],0.731,0.917,1.07,0.838,1.01,1.01
